The values below come from patent US7470669B2, “Isolated polypeptide comprising a leptin fragment” (Serono Genetics Institute, S.A., priority 1999, dated 2008).

In one experiment the test system is LSR. Description: LSR activity (oleate-induced 125I-LDL binding, uptake, degradation) in PLC cells. As to conditions: 10 ng/mL recombinant leptin. In kind it is cell-based, human. The procedure:
FIGS. 5A, 5B, 5C, and 5D show the stimulatory effect of leptin on LSR activity in PLC and suppression of this effect by 81B antibody. For FIGS. 5A, 5B, and 5C, cultured PLC cells were incubated at 37° C. for 30 min with increasing concentrations of human recombinant leptin in Buffer A. After this, 0.5 mM oleate and 20 μg/mL ^125I-LDL were added, and cells were further incubated at 37° C. for 2 h. Cells were washed, and the amount of oleate-induced ^125I-LDL bound (5A), internalized (5B) and degraded (5C) were measured. […] After washing, the amount of ^125I-LDL binding was determined, and is shown here as the mean±SD of triplicate determinations.
FIGS. 8A and 8B show the effect of mouse or human leptin on LSR activity in primary cultures of rat hepatocytes or a human liver cell line (PLC). […] The cells were washed, and the amount of oleate-induced ^125I-LDL bound and degraded was measured as described previously (Bihain, B. E., and Yen, F. T. (1992). Free fatty acids activate a high-affinity saturable pathway for degradation of low density lipoproteins infibroblasts from a subject homozygous for familial hypercholesterolemia. Biochemistry 31, 4628-4636.
FIGS. 35A and 35B show graphs of LSR activity and mRNA expression measured in PLC cells preincubated 24 h with leptin. […] Cells were washed, and the amount of oleate-induced ^125I-LDL binding was measured as described previously. […]

Another experiment deals with ob/ob mice. Briefly: Food intake of ob/ob mice under daily subcutaneous injections. In kind it is in vivo, mouse. The following applies: daily subcutaneous injections of 25 μg over a 12 day period. The procedure:
A synthetic peptide with a sequence identical to that of mouse leptin between residues 117-138 was obtained and found to stimulate the oleate-induced binding of ^125I-LDL in primary cultures of rat hepatocytes (FIG. 11B, insert). Daily subcutaneous injections of 25 μg of this synthetic leptin peptide to ob/ob mice had no effect on the food intake over a 12 day period (7.6±0.4 g/day in ob/ob receiving saline and 6.7±0.3 g/day in ob/ob receiving peptide; n=4, NS). Daily injections of 25 μg of mouse leptin caused a reduction of food intake to 4.7±0.5 g/day (n=3; p<0.003 versus controls).

B1: mouse leptin: recombinant mouse leptin, laboratory-prepared or commercial (Sigma, Calbiochem) (protein, UniProt P41160 22-167, looked up)
Leptin: VPIQKVQDDTKTLIKTIVTRINDISHTQSVSAKQRVTGLDFIPGLHPILSLSKMDQTLAVYQQVLTSLPSQNVLQIANDLENLRDLLHLLAFSKSCSLPQTSGLQKPESLDGVLEASLYSTEVVALSRLQGSLQDILQQLDVSPEC
With B1, the “stimulation of LSR activity in human PLC cells” value in the experiment with LSR is “inactive”. The molecule also had a food intake with ob/ob mice of 4.7 ± 0.5 g/day.
